Residue numbers refer to the chain shown, from its start.
B1: eCFP-Gαq (natural protein, UniProt P21279 1-359, looked up)
chain: MTLESIMACCLSEEAKEARRINDEIERQLRRDKRDARRELKLLLLGTGESGKSTFIKQMRIIHGSGYSDEDKRGFTKLVYQNIFTAMQAMIRAMDTLKIPYKYEHNKAHAQLVREVDVEKVSAFENPYVDAIKSLWNDPGIQECYDRRREYQLSDSTKYYLNDLDRVADPSYLPTQQDVLRVRVPTTGIIEYPFDLQSVIFRMVDVGGQRSERRKWIHCFENVTSIMFLVALSEYDQVLVESDNENRMEESKALFRTIITYPWFQNSSVILFLNKKDLLEEKIMYSHLVDYFPEYDGPQRDAQAAREFILKMFVDLNPDSDKIIYSHFTCATDTENIRFVFAAVKDTILQLNLKEYNLV

Key:
Gαq = test: eCFP/eYFP FRET in living cells, basal; details: sites S887
[1] = molecular target: T1, eYFP-PLCβ1 (wild type phospholipase Cβ1) (UniProt P10687 1-1216); test: FRET or BRET
T1 sequence (looked up): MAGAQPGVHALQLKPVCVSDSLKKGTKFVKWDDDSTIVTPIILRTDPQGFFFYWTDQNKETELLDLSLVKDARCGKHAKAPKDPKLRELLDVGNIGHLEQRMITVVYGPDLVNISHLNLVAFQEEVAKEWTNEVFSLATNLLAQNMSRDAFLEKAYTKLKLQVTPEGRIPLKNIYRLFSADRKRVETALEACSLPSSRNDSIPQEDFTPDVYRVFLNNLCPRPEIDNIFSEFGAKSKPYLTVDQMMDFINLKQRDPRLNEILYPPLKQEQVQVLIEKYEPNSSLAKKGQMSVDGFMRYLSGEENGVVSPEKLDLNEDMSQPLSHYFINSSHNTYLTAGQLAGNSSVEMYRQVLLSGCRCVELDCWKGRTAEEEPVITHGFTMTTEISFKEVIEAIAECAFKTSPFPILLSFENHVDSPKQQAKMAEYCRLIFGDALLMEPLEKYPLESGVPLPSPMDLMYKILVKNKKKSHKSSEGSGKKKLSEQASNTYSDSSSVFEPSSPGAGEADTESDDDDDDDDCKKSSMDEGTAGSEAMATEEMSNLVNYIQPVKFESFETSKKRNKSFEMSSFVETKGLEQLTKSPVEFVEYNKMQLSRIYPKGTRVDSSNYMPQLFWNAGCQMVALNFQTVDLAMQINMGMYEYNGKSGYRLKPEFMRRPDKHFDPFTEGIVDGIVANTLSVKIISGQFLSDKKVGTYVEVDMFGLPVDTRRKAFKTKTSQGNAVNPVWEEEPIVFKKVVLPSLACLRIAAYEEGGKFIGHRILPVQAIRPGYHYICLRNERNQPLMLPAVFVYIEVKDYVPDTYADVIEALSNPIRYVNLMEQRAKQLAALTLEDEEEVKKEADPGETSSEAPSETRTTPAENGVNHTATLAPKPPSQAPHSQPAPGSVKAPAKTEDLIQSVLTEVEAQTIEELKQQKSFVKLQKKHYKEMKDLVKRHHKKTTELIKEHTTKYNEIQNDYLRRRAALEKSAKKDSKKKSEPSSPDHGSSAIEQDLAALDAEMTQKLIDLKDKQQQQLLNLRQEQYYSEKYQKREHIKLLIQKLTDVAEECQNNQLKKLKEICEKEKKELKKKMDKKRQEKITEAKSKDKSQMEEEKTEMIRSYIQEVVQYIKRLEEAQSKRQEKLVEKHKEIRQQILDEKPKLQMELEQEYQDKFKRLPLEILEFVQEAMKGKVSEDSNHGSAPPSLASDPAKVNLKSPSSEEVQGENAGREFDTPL

eYFP-PLCβ1 S887A = molecular target: T2, eYFP-PLCβ1 S887A (UniProt P10687 1-1216, S887A); test: FRET or BRET
T2 sequence (looked up): T1 sequence (looked up) with S887A

eYFP-PLCβ1 S887D = molecular target: T3, eYFP-PLCβ1 S887D (UniProt P10687 1-1216, S887D); test: FRET or BRET
T3 sequence (looked up): T1 sequence (looked up) with S887D

Row | Molecule | other: FRET efficiency (Gαq; reference: wild type) | other: FRET efficiency (Gαq; reference: S887A) | FRET efficiency [1] [%] | FRET efficiency (eYFP-PLCβ1 S887A) [%] | FRET efficiency (eYFP-PLCβ1 S887D) [%]
1 | PLCβ1 S887A | same; reference 38±4 | – | – | – | –
2 | PLCβ1 S887D | same; reference 38±4 | same; reference 30±6 | – | – | –
3 | B1 | – | – | 38 ± 4 | 30 ± 6 | 39 ± 3

— article PMC3081424 (Archives of biochemistry and biophysics, 2011)
